Laboratory results reported in publication PMC4479991.

Experiments:
[1] = target: zif268_GST (uncleaved fusion) (UniProt P08046); experiment: EMSA; details: EMSA: binding on ice, at least 1 h, native PAGE 8% (oligos) or 3.5% (1 kb), salt up to 1 M KCl; nanopore: 1 M KCl, 30 min incubation at 200:1 protein:DNA; pH …
[2] = target: zif268 (EGR1 DNA-binding domain), cleaved (UniProt P08046); experiment: solid-state nanopore; details: EMSA: binding on ice, at least 1 h, native PAGE 8% (oligos) or 3.5% (1 kb), salt up to 1 M KCl; nanopore: 1 M KCl, 30 min incubation at 200:1 protein:DNA; pH …

Substance | binding signal (% bound at 1:250 DNA:protein) [1] | binding signal (% ABA (specifically bound) events) [2]
CGTCAGGGCAAGCCTTATTCACTGAATGAGCAGCTTTGTTACGTTGATTTGGGTAATGAATATCCGGTTCTTGTCAAGATTACTCTTGATGAAGGTCAGCCAGCCTATGCGCCTGGTCTGTACACCGTTCATCTGTCCTCTTTCAAAGTTGGTCAGTTCGGTTCCCTTATGATTGACCGTCTGCGCCTCGTTCCGGCTAAGTAACATGGAGCAGGTCGCGGATTTCGACACAATTTATCAGGCGATGATACAAATCTCCGTTGTACTTTGTTTCGCGCTTGGTATAATCGCTGGGGGTCAAAGATGAGTGTTTTAGTGTATTCTTTCGCCTCTTTCGTTTTAGGTTGGTGCCTTCGTAGTGGCATTACGTATTTTACCCGTTTAATGGAAACTTCCTCATGAAAAAGTCTTTAGTCCTCAAAGCCTCTGTAGCCGTTGCTACCCTCGTTCCGATGCTGTCTTTCGCTGCTGAGGGTGACGATCCCGCAAAAGCGGCCTTTAACTCCCTGCAAGCCTCAGCGACCGAATATATCGGTTATGCGTGGGCGATGGTTGTTGTCATTGTCGGCGCAACTATCGGTATCAAGCTGTTTAAGAAATTCACCTCGAAAGCAAGCTGATAAACCGATACAATTAAAGGCTCCTTTTGGAGCCTTTTTTTTTGGAGATTTTCAACGTGAAAAAATTATTATTCGCAATTCCTTTAGTTGTTCCTTTCTATTCTCACTCCGCTGAAACTGTTGAAAGTTGTTTAGCAAAACCCCATACAGAAAATTCATTTACTAACGTCTGGAAAGACGACAAAACTTTAGATCGTTACGCTAACTATGAGGGTTGTCTGTGGAATGCTACAGGCGTTGTAGTTTGTACTGGTGACGAAACTCAGTGTTACGGTACATGGGTTCCTATTGGGCTTGCTATCCCTGAAAATGAGGGTGGTGGCTCTGAGGGTGGCGGTTCTGAGGGTGGCGGTTCTGAGGGTGGCGGTACTAAACCTCCTGAGTACGGT (double strand) [(+)DNA 1009 bp] | 50 | 11.5
(-)DNA 960 bp | – | 4.3
